The test concerns the target αVβ3 integrin (human (endogenous in THP-1)) (UniProt P06756).
Sequence of UniProt P06756 (P06756 31-1048, chain 1 of 2): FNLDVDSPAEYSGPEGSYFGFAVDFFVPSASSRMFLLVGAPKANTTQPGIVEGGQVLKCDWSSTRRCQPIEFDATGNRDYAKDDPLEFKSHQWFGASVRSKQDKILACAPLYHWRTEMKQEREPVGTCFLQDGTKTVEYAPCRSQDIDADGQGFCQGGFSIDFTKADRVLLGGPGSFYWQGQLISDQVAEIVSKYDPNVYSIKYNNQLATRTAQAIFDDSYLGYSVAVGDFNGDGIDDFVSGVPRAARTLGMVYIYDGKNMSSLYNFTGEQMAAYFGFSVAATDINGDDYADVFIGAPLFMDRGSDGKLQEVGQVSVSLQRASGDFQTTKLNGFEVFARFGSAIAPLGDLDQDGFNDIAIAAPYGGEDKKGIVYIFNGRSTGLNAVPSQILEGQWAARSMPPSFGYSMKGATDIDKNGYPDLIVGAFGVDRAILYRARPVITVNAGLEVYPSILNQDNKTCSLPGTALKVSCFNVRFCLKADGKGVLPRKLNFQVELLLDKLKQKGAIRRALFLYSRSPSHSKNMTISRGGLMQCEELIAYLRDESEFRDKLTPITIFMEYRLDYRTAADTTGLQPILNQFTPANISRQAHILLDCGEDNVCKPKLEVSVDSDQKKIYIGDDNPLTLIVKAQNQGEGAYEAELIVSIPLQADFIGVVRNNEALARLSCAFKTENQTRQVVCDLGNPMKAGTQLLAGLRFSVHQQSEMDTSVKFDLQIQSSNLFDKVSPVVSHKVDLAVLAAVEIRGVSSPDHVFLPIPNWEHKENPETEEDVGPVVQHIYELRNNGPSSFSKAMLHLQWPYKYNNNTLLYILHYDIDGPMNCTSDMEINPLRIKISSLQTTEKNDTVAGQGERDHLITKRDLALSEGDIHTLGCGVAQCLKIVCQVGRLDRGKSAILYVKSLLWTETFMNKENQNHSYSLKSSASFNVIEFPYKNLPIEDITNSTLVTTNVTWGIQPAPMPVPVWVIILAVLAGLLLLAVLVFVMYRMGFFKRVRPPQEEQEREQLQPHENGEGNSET
Sequence of UniProt P06756 (P05106 27-788, chain 2 of 2, further chain): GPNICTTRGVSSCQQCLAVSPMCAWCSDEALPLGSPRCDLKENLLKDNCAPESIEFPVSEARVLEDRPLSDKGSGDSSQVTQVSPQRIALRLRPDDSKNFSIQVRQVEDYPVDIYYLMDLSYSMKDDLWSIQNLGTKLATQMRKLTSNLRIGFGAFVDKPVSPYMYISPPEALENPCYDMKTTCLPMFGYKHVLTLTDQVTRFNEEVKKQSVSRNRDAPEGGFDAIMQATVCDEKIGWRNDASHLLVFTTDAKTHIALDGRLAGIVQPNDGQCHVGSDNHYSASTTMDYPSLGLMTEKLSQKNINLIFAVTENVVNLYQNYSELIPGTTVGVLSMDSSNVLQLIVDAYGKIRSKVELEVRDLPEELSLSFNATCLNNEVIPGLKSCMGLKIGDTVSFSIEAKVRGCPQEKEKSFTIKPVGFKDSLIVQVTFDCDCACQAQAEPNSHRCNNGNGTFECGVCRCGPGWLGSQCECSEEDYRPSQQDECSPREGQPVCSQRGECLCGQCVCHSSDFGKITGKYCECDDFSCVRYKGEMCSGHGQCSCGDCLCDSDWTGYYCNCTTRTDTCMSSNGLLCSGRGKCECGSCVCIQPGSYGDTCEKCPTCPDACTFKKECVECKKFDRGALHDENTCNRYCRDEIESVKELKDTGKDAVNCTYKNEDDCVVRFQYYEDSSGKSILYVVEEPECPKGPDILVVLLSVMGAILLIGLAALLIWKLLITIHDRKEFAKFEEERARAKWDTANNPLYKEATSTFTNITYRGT

In the case of Lunasin (peptide), the decrease in free intracellular Ca^2+ (Fluo-4, live-cell confocal imaging) in LPS-induced THP-1 macrophages after lunasin (1 µM), over 6.67 min (400 frames); resurgence after 30 min turned out to be 34.6%.
